Results taken from patent publication US20110300138A1 (published 2011).
Read-outs that look alike come from different tables or passages of the source.

What was measured:
Assay in all cases: cell-based or functional assay
[1] = biological target: wild type TSHR expressed in CHO cells (human) (UniProt P16473)
wild type TSHR (human) = wild type TSHR (human) (UniProt P16473)
[2] = biological target: wild type TSHR (human TSH receptor, full length) expressed in CHO cells (human) (UniProt P16473)

Cyclic AMP produced (pmol/mL), TSH 0.01 ng/mL [1]: 1.56 pmol/mL
Cyclic AMP produced (pmol/mL), TSH 0.01 ng/mL, Experiment 1 [1]: 1.37 pmol/mL
Cyclic AMP produced (pmol/mL), TSH 0.01 ng/mL, Experiment 2 [1]: 2.1 pmol/mL
Cyclic AMP produced (pmol/mL), TSH 0.03 ng/mL [1]: 2.42 pmol/mL
Cyclic AMP produced (pmol/mL), TSH 0.03 ng/mL, Experiment 1 [1]: 1.58 pmol/mL
Cyclic AMP produced (pmol/mL), TSH 0.03 ng/mL, Experiment 2 [1]: 4.48 pmol/mL
Cyclic AMP produced (pmol/mL), TSH 0.1 ng/mL [1]: 4.09 pmol/mL
Cyclic AMP produced (pmol/mL), TSH 0.1 ng/mL, Experiment 1 [1]: 1.83 pmol/mL
Cyclic AMP produced (pmol/mL), TSH 0.1 ng/mL, Experiment 2 [1]: 10.3 pmol/mL
Cyclic AMP produced (pmol/mL), TSH 0.3 ng/mL [1]: 11.4 pmol/mL
Cyclic AMP produced (pmol/mL), TSH 0.3 ng/mL, Experiment 1 (single determination) [1]: 3.2 pmol/mL
Cyclic AMP produced (pmol/mL), TSH 0.3 ng/mL, Experiment 2 [1]: 35.7 pmol/mL
Cyclic AMP produced (pmol/mL), TSH 1 ng/mL [1]: 45.6 pmol/mL
Cyclic AMP produced (pmol/mL), TSH 1 ng/mL, Experiment 1 [1]: 15.9 pmol/mL
Cyclic AMP produced (pmol/mL), TSH 1 ng/mL, Experiment 2 [1]: 72 pmol/mL
Cyclic AMP produced (pmol/mL), TSH 3 ng/mL [1]: 77.9 pmol/mL
Cyclic AMP produced (pmol/mL), TSH 3 ng/mL, Experiment 1 [1]: 47.6 pmol/mL
Cyclic AMP produced (pmol/mL), TSH 3 ng/mL, Experiment 2 [1]: 79.2 pmol/mL
Cyclic AMP produced, TSH 0.01 ng/mL, wild type TSHR [1]: 2.28 pmol/mL
Cyclic AMP produced, TSH 0.03 ng/mL, wild type TSHR [1]: 3.77 pmol/mL
Cyclic AMP produced, TSH 0.1 ng/mL, wild type TSHR [1]: 9.55 pmol/mL
Cyclic AMP produced, TSH 0.3 ng/mL, wild type TSHR [1]: 28.8 pmol/mL
Cyclic AMP produced, TSH 1 ng/mL, wild type TSHR [1]: 76.8 pmol/mL
Cyclic AMP produced, TSH 3 ng/mL, wild type TSHR [1]: 93.1 pmol/mL
Cyclic AMP produced, wild type TSHR, TSH 0.01 ng/mL (Experiment 1) [1]: 1.69 pmol/mL
Cyclic AMP produced, wild type TSHR, TSH 0.01 ng/mL (Experiment 2) [1]: 4.16 pmol/mL
Cyclic AMP produced, wild type TSHR, TSH 0.03 ng/mL (Experiment 1) [1]: 2.46 pmol/mL
Cyclic AMP produced, wild type TSHR, TSH 0.03 ng/mL (Experiment 2) [1]: 4.92 pmol/mL
Cyclic AMP produced, wild type TSHR, TSH 0.1 ng/mL (Experiment 1) [1]: 6.18 pmol/mL
Cyclic AMP produced, wild type TSHR, TSH 0.1 ng/mL (Experiment 2) [1]: 11.2 pmol/mL
Cyclic AMP produced, wild type TSHR, TSH 0.3 ng/mL (Experiment 1) [1]: 18.9 pmol/mL
Cyclic AMP produced, wild type TSHR, TSH 0.3 ng/mL (Experiment 2) [1]: 31.4 pmol/mL
Cyclic AMP produced, wild type TSHR, TSH 1 ng/mL (Experiment 1) [1]: 45.2 pmol/mL
Cyclic AMP produced, wild type TSHR, TSH 1 ng/mL (Experiment 2) [1]: 74.3 pmol/mL
Cyclic AMP produced, wild type TSHR, TSH 3 ng/mL (Experiment 1) [1]: 61.6 pmol/mL
Cyclic AMP produced, wild type TSHR, TSH 3 ng/mL (Experiment 2) [1]: 96.4 pmol/mL
Cyclic AMP produced; TSH 3 ng/mL [1]: 85 pmol/mL
Cyclic AMP produced; TSH 3 ng/mL alone [1]: 83.8 pmol/mL
Cyclic AMP produced; TSH 3 ng/mL; Experiment 1 [1]: 68.8 pmol/mL
Cyclic AMP produced; TSH 3 ng/mL; Experiment 2 [1]: 97.9 pmol/mL
Cyclic AMP produced; TSH (2) [1]: 93.5 pmol/mL
Cyclic AMP produced; TSH (2) 3 ng/mL, run at the end of assay [1]: 83.6 pmol/mL
Cyclic AMP produced; TSH (2); Experiment 1 [1]: 74.3 pmol/mL
Cyclic AMP produced; TSH (2); Experiment 2 [1]: 102 pmol/mL
Experiment 1: % inhibition of TSH stimulation; TSH (2), run at the end of assay [1]: 0%
Experiment 1; % inhibition of TSH stimulation; TSH (2) 3 ng/mL, run at the end of assay [1]: 5%
Experiment 1; cyclic AMP produced; TSH 3 ng/mL [1]: 78 pmol/mL
Experiment 1; cyclic AMP produced; TSH (2) 3 ng/mL, run at the end of assay [1]: 74.3 pmol/mL
Experiment 2: % inhibition of TSH stimulation; TSH (2), run at the end of assay [1]: 0%
Experiment 2; % inhibition of TSH stimulation; TSH (2) 3 ng/mL, run at the end of assay [1]: 3%
Experiment 2; cyclic AMP produced; TSH 3 ng/mL [1]: 95.8 pmol/mL
Experiment 2; cyclic AMP produced; TSH (2) 3 ng/mL, run at the end of assay [1]: 92.9 pmol/mL
% inhibition of TSH stimulation; TSH (2) ([1]; record 2): 0%
% inhibition of TSH stimulation; TSH (2); Experiment 1 ([1]; record 2): 0%
% inhibition of TSH stimulation; TSH (2); Experiment 2 ([1]; record 2): 0%
Cyclic AMP produced; TSH 3 ng/mL ([1]; record 2): 76.2 pmol/mL
Cyclic AMP produced; TSH 3 ng/mL; Experiment 1 ([1]; record 2): 154 pmol/mL
Cyclic AMP produced; TSH 3 ng/mL; Experiment 2 ([1]; record 2): 59.9 pmol/mL
Cyclic AMP produced; TSH (2) ([1]; record 2): 93.8 pmol/mL
Cyclic AMP produced; TSH (2); Experiment 1 ([1]; record 2): 160 pmol/mL
Cyclic AMP produced; TSH (2); Experiment 2 ([1]; record 2): 61.5 pmol/mL
% inhibition of TSH stimulation, TSH (2) run at the end of assay, wild type TSHR (wild type TSHR (human)): 0%
Cyclic AMP produced (mean of duplicate), TSH 3 ng/mL (wild type TSHR (human)): 88 pmol/mL
Cyclic AMP produced (pmol/mL), TSH 3 ng/mL, wild type TSHR (wild type TSHR (human)): 101 pmol/mL
Cyclic AMP produced (pmol/mL), TSH (2) 3 ng/mL run at the end of assay, wild type TSHR (wild type TSHR (human)): 131 pmol/mL
Cyclic AMP produced, TSH 0.01 ng/mL, Experiment 1 (wild type TSHR (human)): 1.22 pmol/mL
Cyclic AMP produced, TSH 0.01 ng/mL, Experiment 2 (wild type TSHR (human)): 2.02 pmol/mL
Cyclic AMP produced, TSH 0.03 ng/mL, Experiment 1 (wild type TSHR (human)): 1.85 pmol/mL
Cyclic AMP produced, TSH 0.03 ng/mL, Experiment 2 (wild type TSHR (human)): 1.96 pmol/mL
Cyclic AMP produced, TSH 0.1 ng/mL, Experiment 1 (wild type TSHR (human)): 4.89 pmol/mL
Cyclic AMP produced, TSH 0.1 ng/mL, Experiment 2 (wild type TSHR (human)): 4.49 pmol/mL
Cyclic AMP produced, TSH 0.3 ng/mL, Experiment 1 (wild type TSHR (human)): 17.4 pmol/mL
Cyclic AMP produced, TSH 0.3 ng/mL, Experiment 2 (wild type TSHR (human)): 13.5 pmol/mL
Cyclic AMP produced, TSH 1 ng/mL, Experiment 1 (wild type TSHR (human)): 52.9 pmol/mL
Cyclic AMP produced, TSH 1 ng/mL, Experiment 2 (wild type TSHR (human)): 43.2 pmol/mL
Cyclic AMP produced; TSH 3 ng/mL; Experiment 1 (wild type TSHR (human)): 70.6 pmol/mL
Cyclic AMP produced; TSH 3 ng/mL; Experiment 2 (wild type TSHR (human)): 84.8 pmol/mL
% inhibition of TSH stimulation; TSH (2) control [2]: 0%
% inhibition of TSH stimulation; TSH (2) control; Experiment 1 [2]: 0.1%
% inhibition of TSH stimulation; TSH (2) control; Experiment 2 [2]: 0%
Cyclic AMP produced (pmol/mL), TSH 0.01 ng/mL, Experiment 1 [2]: 4.36 pmol/mL
Cyclic AMP produced (pmol/mL), TSH 0.01 ng/mL, Experiment 2 [2]: 2.21 pmol/mL
Cyclic AMP produced (pmol/mL), TSH 0.01 ng/mL, Experiment 3 [2]: 5.19 pmol/mL
Cyclic AMP produced (pmol/mL), TSH 0.03 ng/mL, Experiment 1 [2]: 9.19 pmol/mL
Cyclic AMP produced (pmol/mL), TSH 0.03 ng/mL, Experiment 2 [2]: 3.61 pmol/mL
Cyclic AMP produced (pmol/mL), TSH 0.03 ng/mL, Experiment 3 [2]: 9.82 pmol/mL
Cyclic AMP produced (pmol/mL), TSH 0.1 ng/mL, Experiment 1 [2]: 26.9 pmol/mL
Cyclic AMP produced (pmol/mL), TSH 0.1 ng/mL, Experiment 2 [2]: 7.86 pmol/mL
Cyclic AMP produced (pmol/mL), TSH 0.1 ng/mL, Experiment 3 (duplicate determination) [2]: 25 pmol/mL
Cyclic AMP produced (pmol/mL), TSH 0.3 ng/mL, Experiment 1 [2]: 42 pmol/mL
Cyclic AMP produced (pmol/mL), TSH 0.3 ng/mL, Experiment 2 [2]: 27.1 pmol/mL
Cyclic AMP produced (pmol/mL), TSH 0.3 ng/mL, Experiment 3 [2]: 91.7 pmol/mL
Cyclic AMP produced (pmol/mL), TSH 1 ng/mL, Experiment 1 [2]: 60.1 pmol/mL
Cyclic AMP produced (pmol/mL), TSH 1 ng/mL, Experiment 2 [2]: 54.2 pmol/mL
Cyclic AMP produced (pmol/mL), TSH 1 ng/mL, Experiment 3 [2]: 192 pmol/mL
Cyclic AMP produced (pmol/mL), TSH 3 ng/mL, Experiment 1 [2]: 61.3 pmol/mL
Cyclic AMP produced (pmol/mL), TSH 3 ng/mL, Experiment 2 [2]: 58.1 pmol/mL
Cyclic AMP produced (pmol/mL), TSH 3 ng/mL, Experiment 3 [2]: 226 pmol/mL
Cyclic AMP produced; TSH 3 ng/mL [2]: 50 pmol/mL
Cyclic AMP produced; TSH 3 ng/mL; Experiment 1 [2]: 67.7 pmol/mL
Cyclic AMP produced; TSH 3 ng/mL; Experiment 2 [2]: 60.7 pmol/mL
Cyclic AMP produced; TSH (2) [2]: 53.1 pmol/mL
Cyclic AMP produced; TSH (2); Experiment 1 [2]: 67.5 pmol/mL
Cyclic AMP produced; TSH (2); Experiment 2 [2]: 67.8 pmol/mL
Substance: TSH (ligand)
